What was measured:
[1] = target: T1, recombinant human IL-6R sR (R&D systems) (human, UniProt P08887 20-358); test: SPR (Biacore T100), antibody captured on Protein A, rhIL-6sR as analyte, 25°C
T1 construct: Bought soluble receptor; also called rhIL-6sR; rhIL-s6R
T1 sequence (looked up): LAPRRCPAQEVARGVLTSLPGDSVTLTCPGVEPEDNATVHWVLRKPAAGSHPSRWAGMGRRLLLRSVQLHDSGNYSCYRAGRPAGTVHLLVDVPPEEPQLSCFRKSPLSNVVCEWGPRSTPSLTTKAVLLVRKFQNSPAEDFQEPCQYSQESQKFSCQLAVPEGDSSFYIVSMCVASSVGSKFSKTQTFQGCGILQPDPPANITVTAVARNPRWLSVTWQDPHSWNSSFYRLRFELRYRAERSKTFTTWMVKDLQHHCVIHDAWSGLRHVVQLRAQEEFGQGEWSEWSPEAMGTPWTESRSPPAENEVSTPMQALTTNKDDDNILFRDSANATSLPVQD

[2] = target: T2, SR344 (soluble human IL-6R, N-terminal 1st to 344th amino acids) (human, UniProt P08887 20-344, limits assumed); test: cell-based or functional assay
T2 sequence (looked up): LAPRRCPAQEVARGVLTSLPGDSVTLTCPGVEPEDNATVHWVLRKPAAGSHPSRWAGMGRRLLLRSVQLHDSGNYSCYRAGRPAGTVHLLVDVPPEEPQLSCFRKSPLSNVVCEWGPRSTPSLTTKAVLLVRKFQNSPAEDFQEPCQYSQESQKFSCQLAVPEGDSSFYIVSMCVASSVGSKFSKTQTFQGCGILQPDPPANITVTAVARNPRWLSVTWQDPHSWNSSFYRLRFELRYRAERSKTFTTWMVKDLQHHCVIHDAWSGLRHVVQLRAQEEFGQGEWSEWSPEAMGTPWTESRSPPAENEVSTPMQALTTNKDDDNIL

[3] = target: T2, SR344 (soluble human IL-6R, N-terminal …); test: SPR (Biacore T100), antibody captured on Protein A/G, SR344 as analyte, 37°C
[4] = target: T1, recombinant human IL-6R sR (R&D systems); test: SPR (Biacore T100), antibody captured on Protein A, rhIL-6sR as analyte, 25°C; remark: listed apart in the source
[5] = target: T1, recombinant human IL-6R sR (R&D systems); test: SPR (Biacore T100), antibody captured on Protein A/G, 37°C; end of the range tied by the KD values of Table 3
[6] = target: T2, SR344 (soluble human IL-6R, N-terminal …); test: as above
[7] = target: T3, soluble human FcRn (complex of FcRn and β2-microglobulin) (human, UniProt P55899 24-290; P61769 21-119); test: SPR (Biacore 3000), antibody captured, human FcRn as analyte, pH 6.0
T3 construct: Expressed constructs contain the signal regions (FcRn Met1-Leu290; β2-microglobulin Met1-Met119); also called hFcRn

[8] = target: T2, SR344 (soluble human IL-6R, N-terminal …); test: SPR (Biacore T100), SR344 as analyte, 37°C; end of the range tied by the KD values of Table 16

T3 sequence (P55899 24-290 limits assumed, chain 1 of 2): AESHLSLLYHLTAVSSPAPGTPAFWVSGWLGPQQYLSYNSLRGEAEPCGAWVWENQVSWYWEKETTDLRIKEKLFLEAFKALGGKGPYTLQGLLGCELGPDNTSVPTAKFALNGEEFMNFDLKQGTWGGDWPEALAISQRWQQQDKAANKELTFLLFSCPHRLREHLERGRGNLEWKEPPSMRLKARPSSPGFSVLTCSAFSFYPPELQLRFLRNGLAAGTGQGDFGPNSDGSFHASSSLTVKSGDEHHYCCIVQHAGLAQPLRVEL
T3 sequence (P61769 21-119 limits assumed, chain 2 of 2): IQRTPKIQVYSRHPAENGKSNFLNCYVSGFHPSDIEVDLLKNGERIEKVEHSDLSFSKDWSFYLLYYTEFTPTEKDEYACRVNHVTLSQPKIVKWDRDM

B1: RD-6 (antibody, V domains shown)
VH: QVQLQESGPGLVRPSQTLSLTCTVSGYSITSDHAWSWVRQPPGRGLEWIGYISYSGITTYNPSLKSRVTMLRDTSKNQFSLRLSSVTAADTAVYYCARLLARATAMDYWGQGSLVTVSS
VL: DIQMTQSPSSLSASVGDRVTITCRASQDISSYLNWYQQKPGKAPKLLIYYTSRLHSGVPSRFSGSGSGTDFTFTISSLQPEDIATYYCQQGNTLPYTFGQGTKVEIK
[1]
  fold higher affinity than WT: ~50 times
[2]
  BaF/gp130-neutralizing activity, 100% inhibitory concentration, against WT: ~50 times higher than WT

B2: H53/L28 (antibody, IgG1, V domains shown)
VH: QVQLQESGPGLVKPSETLSLTCAVSGYSISDDHAWSWVRQPPGEGLEWIGYISYSGITNYNPSLKGRVTISRDTSKNQFSLKLSSVTAADTAAYYCARSLARTTAMDYWGEGTLVTVSS
VL: DIQMTQSPSSLSASVGDSVTITCQASQDISSYLNWYQQKPGKAPELLIYYGSELHSGVPSRFSGSGSGTDFTFTISSLEAEDAATYYCQQGNSLPYTFGQGTKVEIE
notes: made from the humanized PM-1 IgG1 vectors; also called altered antibody H53/L28
[3]
  fold reduction of KD compared to WT: ~6 fold

B3: PF1 antibody (antibody, IgG1, V domains shown)
VH: QVQLQESGPGLVKPSETLSLTCAVSGYSISDDHAWSWVRQPPGEGLEWIGYISYSGITNYNPSLKGRVTISRDTSKNQFSLKLSSVTAADTAAYYCARVLARITAMDYWGEGTLVTVSS
VL: DIQMTQSPSSLSASVGDSVTITCQASQDISSYLNWYQQKPGKAPELLIYYGSELHSGVPSRFSGSGSGTDFTFTISSLEAEDAATYYCGQGNRLPYTFGQGTKVEIE
notes: also called PF1-IgG1; PF1_H/PF1_L
[3]
  fold improved affinity compared to WT: ~150 times

B4: RDC-8 (antibody, V domains shown)
VH: QVQLQESGPGLVRPSQTLSLTCTVSGYSITSDHAWSWVRQPPGRGLEWIGYISYSGITTYNPSLKSRVTMLRDTSKNQFSLRLSSVTAADTAVYYCARLLARITAMDYWGQGSLVTVSS
VL: DIQMTQSPSSLSASVGDRVTITCRASQDISSYLNWYQQKPGKAPKLLIYYTSRLHSGVPSRFSGSGSGTDFTFTISSLQPEDIATYYCQQGNTLPYTFGQGTKVEIK
notes: IgG; also called H chain RDC-8H, L chain L(WT)
[4]
  koff: 3.8e-05 s⁻¹

B5: RDC-23 (antibody, V domains shown)
VH: QVQLQESGPGLVRPSQTLSLTCTVSGYSITSDHAWSWVRQPPGRGLEWIGYISYSGITTYNPSLKSRVTMLRDTSKNQFSLRLSSVTAADTAVYYCARVLARITAMDYWGQGSLVTVSS
VL: DIQMTQSPSSLSASVGDRVTITCRASQDISSYLNWYQQKPGKAPKLLIYYTSRLHSGVPSRFSGSGSGTDFTFTISSLQPEDIATYYCGQGNRLPYTFGQGTKVEIK
notes: IgG; also called H chain RDC-5H, L chain RDC-11L
[5]
  fold improved affinity compared to WT: 40 to 60 times
[6]
  fold improved affinity compared to WT: 40 to 60 times
[2]
  BaF/gp130-neutralizing activity, 100% inhibitory concentration, against WT: ~100 times higher than WT

B6: WT-M58 (antibody)
heavy: QVQLQESGPGLVRPSQTLSLTCTVSGYSITSDHAWSWVRQPPGRGLEWIGYISYSGITTYNPSLKSRVTMLRDTSKNQFSLRLSSVTAADTAVYYCARSLARTTAMDYWGQGSLVTVSSASTKGPSVFPLAPSSKSTSGGTAALGCLVKDYFPEPVTVSWNSGALTSGVHTFPAVLQSSGLYSLSSVVTVPSSNFGTQTYTCNVDHKPSNTKVDKTVERKSCVECPPCPAPPVAGPSVFLFPPKPKDTLMISRTPEVTCVVVDVSQEDPEVQFNWYVDGVEVHNAKTKPREEQFNSTFRVVSVLTVVHQDWLNGKEYKCKVSNKGLPAPIEKTISKTKGQPREPQVYTLPPSQEEMTKNQVSLTCLVKGFYPSDIAVEWESNGQPENNYKTTPPMLDSDGSFFLYSKLTVDKSRWQEGNVFSCSVMHEALHNHYTQKSLSLSP
light: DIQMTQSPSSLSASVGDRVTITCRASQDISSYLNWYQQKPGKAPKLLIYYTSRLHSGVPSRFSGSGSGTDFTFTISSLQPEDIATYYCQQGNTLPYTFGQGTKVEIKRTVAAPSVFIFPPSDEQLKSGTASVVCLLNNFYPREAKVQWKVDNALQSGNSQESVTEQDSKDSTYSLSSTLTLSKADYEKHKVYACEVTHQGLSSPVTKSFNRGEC
notes: L(WT) as L chain; copies: 2 + 2
[7]
  binding relative to WT-IgG1: ~1.4 times of WT-IgG1

B7: WT-M73 (antibody)
heavy: QVQLQESGPGLVRPSQTLSLTCTVSGYSITSDHAWSWVRQPPGRGLEWIGYISYSGITTYNPSLKSRVTMLRDTSKNQFSLRLSSVTAADTAVYYCARSLARTTAMDYWGQGSLVTVSSASTKGPSVFPLAPSSKSTSGGTAALGCLVKDYFPEPVTVSWNSGALTSGVHTFPAVLQSSGLYSLSSVVTVPSSNFGTQTYTCNVDHKPSNTKVDKTVERKSCVECPPCPAPPVAGPSVFLFPPKPKDTLMISRTPEVTCVVVDVSQEDPEVQFNWYVDGVEVHNAKTKPREEQFNSTFRVVSVLTVVHQDWLNGKEYKCKVSNKGLPAPIEKTISKTKGQPREPQVYTLPPSQEEMTKNQVSLTCLVKGFYPSDIAVEWESNGQPENNYKTTPPMLDSDGSFFLYSKLTVDKSRWQEGNVFSCSVMHEALHAHYTQKSLSLSP
light: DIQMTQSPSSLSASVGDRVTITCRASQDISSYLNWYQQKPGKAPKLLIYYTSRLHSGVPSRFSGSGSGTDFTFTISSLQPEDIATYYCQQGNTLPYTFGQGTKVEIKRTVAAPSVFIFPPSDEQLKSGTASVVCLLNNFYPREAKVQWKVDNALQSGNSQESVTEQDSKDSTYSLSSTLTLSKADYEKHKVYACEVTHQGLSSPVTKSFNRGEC
notes: WT-M58 with alanine at position 434 (EU numbering); L(WT) as L chain; copies: 2 + 2
[7]
  binding relative to WT-IgG1: ~3.8 times of WT-IgG1

B8: F2H/L39-IgG1 (antibody, V domains shown)
VH: QVQLQESGPGLVKPSETLSLTCAVSGYSISDDHAWSWVRQPPGEGLEWIGYISYSGITNYNPSLQDRVTISRDNSKNTLYLQMNSLRAEDTAVYYCARLLARATAMDYWGQGILVTVSS
VL: DIQMTQSPSSLSASVGDSVTITCQASEDISSYLNWYQQKPGKAPELLIYYGSELESGVPSRFSGSGSGTDFTFTISSLEAEDAATYYCGQGNRLPYTFGQGTKVEIER
[3]
  ka relative to PF1-IgG1: ~0.5 fold of PF1-IgG1
[2]
  BaF/gp130-neutralizing activity, 100% inhibitory concentration, against WT: ≥ 100 times higher than WT

B9: Fv3-M73 (antibody, V domains shown)
VH: QVQLQESGPGLVKPSETLSLTCAVSGHSISHDHAWSWVRQPPGEGLEWIGFISYSGITNYNPTLQGRVTISRDNSKNTLYLQMNSLRAEDTAVYYCARSLARTTAMDYWGEGTLVTVSS
VL: DIQMTQSPSSLSASVGDSVTITCQASRDISSHLNWYQQKPGKAPELLIYYGSHLLSGVPSRFSGSGSGTDFTFTISSLEAEDAATYYCGQGNRLPYTFGQGTKVEIER
notes: also called H chain VH4-M73, L chain VL1-kappa
[8]
  fold higher affinity than TOCILIZUMAB: 3 times

B10: Fv4-M73 (antibody, V domains shown)
VH: QVQLQESGPGLVKPSETLSLTCAVSGHSISHDHAWSWVRQPPGEGLEWIGFISYSGITNYNPSLQGRVTISRDNSKNTLYLQMNSLRAEDTAVYYCARSLARTTAMDYWGEGTLVTVSS
VL: DIQMTQSPSSLSASVGDSVTITCQASTDISSHLNWYQQKPGKAPELLIYYGSHLLSGVPSRFSGSGSGTDFTFTISSLEAEDAATYYCGQGNRLPYTFGQGTKVEIER
notes: also called H chain VH3-M73, L chain VL3-kappa
[8]
  fold higher affinity than TOCILIZUMAB: 2 times

From patent US20110245473A1 (Chugai, published 2011)
